Source: patent US20050221391A1, “Reagents and methods for identification of binding agents” (priority 2000, published 2005)
“Also recorded” adds a separate entry of the source.

Key:
[1] = target: tau231P (tau peptide phosphorylated at threonine 231) (Homo sapiens, UniProt P10636); experiment: ELISA binding to immobilized biotinylated tau231P phosphopeptide; settings: synthetic phosphopeptide
Description: To identify compounds which bind to tau peptides phosphorylated on threonine 231, a 96 well or […] ELISA plate is coated with Neuravidin in 20 mM K2HPO4/10 mM KH2PO4, 1 mM EDTA, 0.8% NaCl, 0.01% NAN3, pH 7.2, using a protein concentration of 5 micrograms per ml. All volumes in ELISA plates are 50 microliters, except for storage, where 200 microliters is added. After coating, plates are incubated with 10 mM tris base, 150 mM NaCl, pH 7.4 CIBS) containing 2% bovine serum albumin (BSA) and stored at 4 °C. Plates prepared this way are stable for several weeks.
A peptide derived from the protein tau was utilized, as shown below: • Biotin-KKVAVR(phospho)TPPKSPSS (SEQ D NO. 1) The peptide was diluted to a concentration of 0.5 micromolar in TBS containing 2% BSA, and 50 microliters per well were added followed by incubation at room temperature for one hour. Unbound peptide is washed off with TBS containing 0.5% Tween 20. […] Bound antibody is detected by incubation with a solution of goat anti-mouse Ig or goat anti-rabbit Ig coupled to horse radish peroxidase (HRP) (2 micrograms per ml in TBS containing 1% BSA) for one hour, and excess antibody is removed by washing with TBS containing 0.05% Tween 20. HRP activity is determined by addition of a substrate capable of generating a colored or fluorescent product (i.e., ABTS Substrate solution (BioRad Laboratories, Hercules, Calif.)). […]

[2] = target: APP668P (APP peptide phosphorylated at threonine 668) (Homo sapiens, UniProt P05067); experiment: ELISA binding to immobilized biotinylated APP668P phosphopeptide; settings: synthetic phosphopeptide
Description: It is also possible to practice the method described above using a phosphopeptide corresponding to the sequence of APP. The sequence of one such peptide is shown below: • Biotin-VEVDAAV(phospho)TPEERHLS (SEQ ID NO. 2) In place of the TG3 antibody, a mAb specific for the phosphothreonine 668 of APP is used. The same antibody detection reagents and methods are used as described above. Examples of antibodies useful in this regard include but are not limited to GF1, GF3, GF5, GF7, GF12, GF25, and GF31. Polyclonal antibodies reactive against substantially similar phosphopeptides may also be useful.
Assays have been established in which the tau and APP phosphopeptides are biotinylated and immobilized on Neutravidin-coated 96 well ELISA plates. […] Concentrations of GF31 in the 5 nM range give a robust signal on such plates, and the binding is very sensitive to the presence of an antibody, TG3, which has a high affinity for the tau peptide (FIG. 5B). Duplicate assays are shown in FIG. 5B, illustrating the reproducibility of the assay.

[3] = tested on: non-phosphorylated tau and APP peptides; experiment: Binding to the respective non-phosphorylated tau and APP peptides
[4] = target: tau peptide incorporating the phosphorylated threonine 231 site (tau231P), Biotin-KKVAVVR(phospho)TPPKSPSS; experiment: estimated from other studies, method not described

Row | Substance | binding / recognition of tau231P phosphopeptide [1] | binding / recognition of APP668P phosphopeptide [2] | binding to the respective non-phosphorylated peptides [3] | Kd [4] [nM]
1 | Pin1: prolyl isomerase which binds phosphorylated serine/threonine-proline bonds in proteins | high affinity; also recorded: binds | high affinity; also recorded: binds | does not bind | –
2 | monoclonal antibody TG3 | – | – | – | 25
